Results taken from US20190015483A1 (CSL BEHRING RECOMBINANT FACILITY, published 2019).
Changes are numbered by the printed parent chain. Names and notes keep the numbering of the source.

T1: recombinant Factor VIII (CSL627, rVIII-SingleChain) (Homo sapiens (Human), UniProt P00451 20-2351)
T1 construct: also called FVIII
T1 sequence: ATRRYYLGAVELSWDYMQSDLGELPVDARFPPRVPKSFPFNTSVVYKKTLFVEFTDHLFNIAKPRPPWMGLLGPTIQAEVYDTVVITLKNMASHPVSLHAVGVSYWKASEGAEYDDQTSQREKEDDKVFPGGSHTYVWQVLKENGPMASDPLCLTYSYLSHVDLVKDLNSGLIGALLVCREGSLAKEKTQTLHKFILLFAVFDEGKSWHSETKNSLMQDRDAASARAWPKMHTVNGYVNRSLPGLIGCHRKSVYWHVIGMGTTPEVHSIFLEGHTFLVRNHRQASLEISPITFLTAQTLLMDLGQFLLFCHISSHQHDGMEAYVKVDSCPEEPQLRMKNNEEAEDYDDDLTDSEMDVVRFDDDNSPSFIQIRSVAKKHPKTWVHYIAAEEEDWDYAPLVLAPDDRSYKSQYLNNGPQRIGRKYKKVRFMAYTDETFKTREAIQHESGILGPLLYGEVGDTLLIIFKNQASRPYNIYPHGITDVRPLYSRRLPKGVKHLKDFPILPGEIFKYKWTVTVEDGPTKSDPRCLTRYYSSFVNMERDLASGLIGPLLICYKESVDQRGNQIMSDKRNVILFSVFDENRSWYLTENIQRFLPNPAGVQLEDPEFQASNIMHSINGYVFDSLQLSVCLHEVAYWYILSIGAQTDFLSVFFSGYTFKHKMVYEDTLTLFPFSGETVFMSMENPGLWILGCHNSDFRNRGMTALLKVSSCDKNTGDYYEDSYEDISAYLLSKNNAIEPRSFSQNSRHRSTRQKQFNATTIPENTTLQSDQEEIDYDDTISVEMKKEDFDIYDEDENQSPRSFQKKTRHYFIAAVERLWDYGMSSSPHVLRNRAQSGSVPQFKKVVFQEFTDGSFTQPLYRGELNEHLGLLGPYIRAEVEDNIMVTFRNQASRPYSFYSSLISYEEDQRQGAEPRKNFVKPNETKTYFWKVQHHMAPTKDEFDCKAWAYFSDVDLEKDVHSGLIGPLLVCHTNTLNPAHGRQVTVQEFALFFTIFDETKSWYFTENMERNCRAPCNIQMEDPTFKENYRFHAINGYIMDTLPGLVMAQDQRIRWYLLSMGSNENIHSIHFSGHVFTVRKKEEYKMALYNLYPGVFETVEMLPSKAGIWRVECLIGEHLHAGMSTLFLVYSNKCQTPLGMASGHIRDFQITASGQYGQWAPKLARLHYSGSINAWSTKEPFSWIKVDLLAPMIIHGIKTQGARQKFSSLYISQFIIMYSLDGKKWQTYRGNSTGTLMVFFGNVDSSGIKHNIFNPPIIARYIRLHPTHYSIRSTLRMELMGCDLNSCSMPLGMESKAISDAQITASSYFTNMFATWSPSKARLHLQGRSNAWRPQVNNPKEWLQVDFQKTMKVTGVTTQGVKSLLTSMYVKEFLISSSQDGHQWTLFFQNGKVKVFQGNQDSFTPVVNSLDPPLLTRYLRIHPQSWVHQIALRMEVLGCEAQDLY

B1: Hu-vWF[764-1270]-8His S766W-L809G (other)
chain: SLWCRPPMVKLVCPADNLRAEGLECTKTCQNYDLECMSMGCVSGCGCPPGMVRHENRCVALERCPCFHQGKEYAPGETVKIGCNTCVCRDRKWNCTDHVCDATCSTIGMAHYLTFDGLKYLFPGECQYVLVQDYCGSNPGTFRILVGNKGCSHPSVKCKKRVTILVEGGEIELFDGEVNVKRPMKDETHFEVVESGRYIILLLGKALSVVWDRHLSISVVLKQTYQEKVCGLCGNFDGIQNNDLTSSNLQVEEDPVDFGNSWKVSSQCADTRKVPLDSSPATCHNNIMKQTMVDSSCRILTSDVFQDCNKLVDPEPYLDVCIYDTCSCESIGDCACFCDTIAAYAHVCAQHGKVVTWRTATLCPQSCEERNLRENGYECEWRYNSCAPACQVTCQHPEPLACPVQCVEGCHAHCPPGKILDELLQTCVDPEDCPVCEVAGRRFASGKKVTLNPSDPEHCQICHCDVVNLTCEACQEPGGLVVPPTDAPVSPTTLYVEDISEPPLHDFHHHHHHHH
B2: Hu-vWF[764-1270]-8His S766W-S806A (other)
chain: B1 chain with S43A, G46L
B3: Hu-vWF[764-1270]-8His S766W-L809W (other)
chain: B1 chain with G46W
B4: Hu-vWF[764-1270]-8His S766W-L809R (other)
chain: B1 chain with G46R
B5: Hu-vWF[764-1270]-8His S766W-L809K (other)
chain: B1 chain with G46K
B6: Hu-vWF[764-1270]-8His S766W-L809S (other)
chain: B1 chain with G46S
B7: Hu-vWF[764-1270]-8His S766W-L809M (other)
chain: B1 chain with G46M
B8: Hu-vWF[764-1270]-8His S766W-L809N (other)
chain: B1 chain with G46N
B9: Hu-vWF[764-1270]-8His S766W-L809H (other)
chain: B1 chain with G46H
B10: Hu-vWF[764-1270]-8His S766W-L809V (other)
chain: B1 chain with G46V
B11: Hu-vWF[764-1270]-8His S766W-L809P (other)
chain: B1 chain with G46P
B12: Hu-vWF[764-1270]-8His S766W-L809I (other)
chain: B1 chain with G46I
B13: Hu-vWF[764-1270]-8His S766W-L809T (other)
chain: B1 chain with G46T
B14: Hu-vWF[764-1270]-8His S766W-L809Q (other)
chain: B1 chain with G46Q
B15: Hu-vWF[764-1270]-8His S766W-S806D (other)
chain: B1 chain with S43D, G46L
B16: Hu-vWF[764-1270]-8His S766W-L809Y (other)
chain: B1 chain with G46Y

Target: T1, recombinant Factor VIII (CSL627, …)
Assay: SPR, anti-His capture, FVIII injected, 37 C
Experimental: Binding kinetics were investigated by surface plasmon resonance using a Biacore 4000 biosensor at 37° C. Each mutant was captured from cell culture medium to a density of 40-150 RU on a CM-5 sensor chip pre-immobilised with anti-His antibody (14,000 RU). In an initial screening study, FVIII was injected over the captured mutants for 5 minutes at 1 nM and dissociation monitored for 5 minutes.
All sensorgrams were double referenced by subtraction of signals from a reference spot (containing only immobilised anti His antibody) and from a blank injection. Binding kinetics were determined by fitting the double referenced sensorgrams to a 1:1 kinetic model.

Row | Kd [nM] | koff [s⁻¹] | kon [M⁻¹ s⁻¹] | binding result | Binder
1 | 0.363 | 0.00226 | 6.21e+06 |  | B1
2 | 0.0778 | 0.000376 | 4.84e+06 |  | B2
3 | 0.648 | 0.00312 | 4.81e+06 |  | B3
4 | 0.352 | 0.00213 | 6.07e+06 |  | B4
5 | 0.219 | 0.00153 | 7e+06 |  | B5
6 | 0.22 | 0.00144 | 6.54e+06 |  | B6
7 | 0.117 | 0.000581 | 4.99e+06 |  | B7
8 | 0.369 | 0.00227 | 6.15e+06 |  | B8
9 | 0.397 | 0.00114 | 2.87e+06 |  | B9
10 | 0.122 | 0.00094 | 7.7e+06 |  | B10
11 |  |  |  | no binding | B11
12 | 0.103 | 0.000541 | 5.23e+06 |  | B12
13 | 0.161 | 0.00141 | 8.72e+06 |  | B13
14 | 0.212 | 0.00113 | 5.33e+06 |  | B14
15 | 0.164 | 0.000688 | 4.2e+06 |  | B15
16 | 0.5 | 0.00339 | 6.77e+06 |  | B16
